Target: human mpl (myeloproliferative leukemia receptor, TPO receptor) expressed on stably transfected BaF3 cells (human) (UniProt P40238)
Assay: cell-based or functional assay

“human thrombopoietin (TPO), expressed in COS cells from cDNA cloned from human fetal liver; used as TPO-containing COS supernatant (from UniProt P40225 22-353) (ligand)” was tested, and the proliferation of mpl-expressing BaF3 cells (activity of the supernatant) was 300000 U/ml.

Source: patent US6916470
